Assay results as given in publication PMC11076500, “Impact of distinct FG nucleoporin repeats on Nup98 self-association” (Nature Communications, 2024).

B1: FG-repeat domain of human Nup98 (Nup98^FG; residues 1-384), wild type (protein)
chain: MFNKSFGTPFGGGTGGFGTTSTFGQNTGFGTTSGGAFGTSAFGSSNNTGGLFGNSQTKPGGLFGTSSFSQPATSTSTGFGFGTSTGTANTLFGTASTGTSLFSSQNNAFAQNKPTGFGNFGTSTSSGGLFGTTNTTSNPFGSTSGSLFGPSSFTAAPTGTTIKFNPPTGTDTMVKAGVSTNISTKHQCITAMKEYESKSLEELRLEDYQANRKGPQNQVGAGTTTGLFGSSPATSSATGLFSSSTTNSGFAYGQNKTAFGTSTTGFGTNPGGLFGQQNQQTTSLFSKPFGQATTTQNTGFSFGNTSTIGQPSTNTMGLFGVTQASQPGGLFGTATNTSTGTAFGTGTGLFGQTNTGFGAVGSTLFGNNKLTTFGSSTTSAPSFG
B2: Nup98^FG F228S mutant (protein)
chain: MFNKSFGTPFGGGTGGFGTTSTFGQNTGFGTTSGGAFGTSAFGSSNNTGGLFGNSQTKPGGLFGTSSFSQPATSTSTGFGFGTSTGTANTLFGTASTGTSLFSSQNNAFAQNKPTGFGNFGTSTSSGGLFGTTNTTSNPFGSTSGSLFGPSSFTAAPTGTTIKFNPPTGTDTMVKAGVSTNISTKHQCITAMKEYESKSLEELRLEDYQANRKGPQNQVGAGTTTGLSGSSPATSSATGLFSSSTTNSGFAYGQNKTAFGTSTTGFGTNPGGLFGQQNQQTTSLFSKPFGQATTTQNTGFSFGNTSTIGQPSTNTMGLFGVTQASQPGGLFGTATNTSTGTAFGTGTGLFGQTNTGFGAVGSTLFGNNKLTTFGSSTTSAPSFG
B3: Nup98^FG F102S mutant (protein)
chain: MFNKSFGTPFGGGTGGFGTTSTFGQNTGFGTTSGGAFGTSAFGSSNNTGGLFGNSQTKPGGLFGTSSFSQPATSTSTGFGFGTSTGTANTLFGTASTGTSLSSSQNNAFAQNKPTGFGNFGTSTSSGGLFGTTNTTSNPFGSTSGSLFGPSSFTAAPTGTTIKFNPPTGTDTMVKAGVSTNISTKHQCITAMKEYESKSLEELRLEDYQANRKGPQNQVGAGTTTGLFGSSPATSSATGLFSSSTTNSGFAYGQNKTAFGTSTTGFGTNPGGLFGQQNQQTTSLFSKPFGQATTTQNTGFSFGNTSTIGQPSTNTMGLFGVTQASQPGGLFGTATNTSTGTAFGTGTGLFGQTNTGFGAVGSTLFGNNKLTTFGSSTTSAPSFG
B4: Nup98^FG F319S mutant (protein)
chain: MFNKSFGTPFGGGTGGFGTTSTFGQNTGFGTTSGGAFGTSAFGSSNNTGGLFGNSQTKPGGLFGTSSFSQPATSTSTGFGFGTSTGTANTLFGTASTGTSLFSSQNNAFAQNKPTGFGNFGTSTSSGGLFGTTNTTSNPFGSTSGSLFGPSSFTAAPTGTTIKFNPPTGTDTMVKAGVSTNISTKHQCITAMKEYESKSLEELRLEDYQANRKGPQNQVGAGTTTGLFGSSPATSSATGLFSSSTTNSGFAYGQNKTAFGTSTTGFGTNPGGLFGQQNQQTTSLFSKPFGQATTTQNTGFSFGNTSTIGQPSTNTMGLSGVTQASQPGGLFGTATNTSTGTAFGTGTGLFGQTNTGFGAVGSTLFGNNKLTTFGSSTTSAPSFG
B5: Nup98^FG F102S/F319S double mutant (protein)
chain: MFNKSFGTPFGGGTGGFGTTSTFGQNTGFGTTSGGAFGTSAFGSSNNTGGLFGNSQTKPGGLFGTSSFSQPATSTSTGFGFGTSTGTANTLFGTASTGTSLSSSQNNAFAQNKPTGFGNFGTSTSSGGLFGTTNTTSNPFGSTSGSLFGPSSFTAAPTGTTIKFNPPTGTDTMVKAGVSTNISTKHQCITAMKEYESKSLEELRLEDYQANRKGPQNQVGAGTTTGLFGSSPATSSATGLFSSSTTNSGFAYGQNKTAFGTSTTGFGTNPGGLFGQQNQQTTSLFSKPFGQATTTQNTGFSFGNTSTIGQPSTNTMGLSGVTQASQPGGLFGTATNTSTGTAFGTGTGLFGQTNTGFGAVGSTLFGNNKLTTFGSSTTSAPSFG
B6: Nup98^FG(298-327) peptide (peptide, UniProt P52948 298-327, looked up)
peptide: TGFSFGNTSTIGQPSTNTMGLFGVTQASQP
notes: Forms amyloid fibrils; each fibril layer holds five peptides (four parallel, one antiparallel); source: synthetic peptide (solid-phase synthesis, Genscript)

Assays:
P52948 = test: 1D 1H NMR (loss of the signal of soluble protein); 100 μM protein in 50 mM sodium phosphate, 1 mM TCEP; pH raised from 3 to 7 with NaOH, measured immediately (deadtime ~5 min); 5 °C; amide region integrated; self-association into particles not detectable by NMR; conditions: other: 1D 1H NMR (loss of the signal of soluble protein)
[1] = target: the molecule itself; test: cryo-EM structure; amyloid fibrils from 2 mM peptide in water, 25 °C for one day; helical reconstruction, 2.67 Å; five peptides in each layer

Protein | percent of the protein aggregated just after changing the pH to 7 (P52948) | binding result [1]
B1 | 67 % of the wild-type protein forms aggregates | –
B2 | in the F228S mutant 46% of the protein aggregates | –
B3 | only 28 and 23 % of the protein aggregated, respectively | –
B4 | only 28 and 23 % of the protein aggregated, respectively | –
B5 | only 28 and 23 % of the protein aggregated, respectively | –
B6 | – | binds
